The text below walks through data of patent US20130164299A1 (CENTRE NATIONAL DE LA RECHERCHE SCIENTIFIQUE, published 2013).

Test [1] concerns the target T1, AICL, expressed on transfected 293T cells (UniProt Q92478 1-149, limits assumed).
T1 construct: whole, on cells; also called AICL-transfectants
T1 sequence (looked up): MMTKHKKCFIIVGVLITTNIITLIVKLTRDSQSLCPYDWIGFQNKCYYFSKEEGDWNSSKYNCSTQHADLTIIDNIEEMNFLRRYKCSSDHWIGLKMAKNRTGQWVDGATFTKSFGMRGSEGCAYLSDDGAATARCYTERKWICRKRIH
Briefly: flow cytometry on 293T cells transfected with AICL. In general terms: A flow cytometer gives signals particle by particle.

For another test, the target named is T2, CLEC2A-Fc protein (UniProt Q6UVW9 49-174).
T2 construct: Negative control coat in the ELISA; not shown: Fc portion recognised by anti-human Ig
T2 sequence (looked up): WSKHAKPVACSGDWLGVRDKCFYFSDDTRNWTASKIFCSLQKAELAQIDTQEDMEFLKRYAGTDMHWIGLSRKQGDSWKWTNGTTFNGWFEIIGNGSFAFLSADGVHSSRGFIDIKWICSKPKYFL
Put plainly: ELISA, coated Fc fusion protein. The procedure: Anti-LLT12F1A5 and anti-LLT14F were compared to mAb's 4C7 and MAB3480 with respect to binding to CLEC2D (LLT1) fusion proteins in the ELISA application. Wells were coated with Fc fusion proteins representing full-length CLEC2D or splice variant 2 and 4 hereof (CLEC2D-iso2 and -iso4, respectively). Full-length CLEC2D contains exons 1, 2, 3, 4a and 5, whereas isoforms 2 and 4 contain exons 1, 2, 3, 4a, 4b, 5 and exons 1, 2, 3, 5, respectively. Coated wells were incubated with anti-LLT12F1A5, anti-LLT14F, MAB3480 or 4C7 antibodies. Wells not coated with protein (PBS) or coated with CLEC2A-Fc protein were included as negative controls. Antibody binding was detected by HRP-conjugated anti-mouse Ig secondary antibody and chromogen. HRP-conjugated anti-human Ig antibody was included as a positive control that recognized the Fc portion of both fusion proteins.
A general note: ELISA stands for enzyme-linked immunosorbent assay.

For test [2], the target named is T3, lectin-like transcript 1 (LLT1), recombinantly expressed on cells (human, UniProt Q9UHP7 1-191).
T3 construct: In the Western blot the protein stood in cell extracts, in the IHC validation in fixed cells; also called CLEC2D; C1R-LLT1 transfectants
T3 sequence: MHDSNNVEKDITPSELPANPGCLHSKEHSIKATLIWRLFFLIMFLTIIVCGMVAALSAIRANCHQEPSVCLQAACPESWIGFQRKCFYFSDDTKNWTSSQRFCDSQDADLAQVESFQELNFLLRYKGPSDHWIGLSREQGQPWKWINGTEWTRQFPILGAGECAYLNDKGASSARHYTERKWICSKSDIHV
Put plainly: flow cytometry on C1R-LLT1 transfectants, anti-mouse IgG secondary antibody. The procedure:
(§1) C1R-LLT1 transfectants and parental C1R cells were washed in PBS containing 1% FCS and incubated with anti-LLT14F or anti-LLT14F-hIgG4 antibody at concentrations 0.0003-10 μg/ml as indicated in FIG. 4 for 30 min at 4° C. followed by incubation with fluorochrome-conjugated anti-mouse or anti-human IgG secondary antibodies, respectively. Samples were washed three times in PBS containing 1% FCS and analysed by flow cytometry.

Test [3] deals with T4, LLT1-Fc fusion protein (human, UniProt Q9UHP7 60-191, limits assumed).
T4 construct: also called LLT1-hFc; LLT-Fc; not shown: human Fc (hFc)
T4 sequence: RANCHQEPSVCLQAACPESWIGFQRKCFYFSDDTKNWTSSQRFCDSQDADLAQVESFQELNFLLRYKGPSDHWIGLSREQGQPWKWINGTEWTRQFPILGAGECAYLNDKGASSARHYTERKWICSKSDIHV
Briefly: blocking assay by flow cytometry: binding of LLT1-Fc multimers to CD161 on 293T-CD161 cells in the presence of the antibody. The method, then: A multimeric complex was generated by incubating the LLT1-Fc fusion protein with biotinylated protein A (Pierce) at a molar ratio of 1:1. Saturating amounts of purified hIgG were added to block the remaining free protein A sites. A multimer control was generated using protein A-biotin saturated with purified hIgG. These complexes were conjugated to streptavidin-allophycocyanin (BD Biosciences). […] Anti-LLT14F (4F) or control IgG1 (ctrl IgG1) was added at concentrations 0.01-200 μg/ml. For comparison, anti-LLT12F1 (2F1A5) and AF3480 were tested in parallel with 4F in this assay. Binding of LLT1-multimers was evaluated by flow cytometry.

The target of test [4] is T3, lectin-like transcript 1 (LLT1), …. Briefly: flow cytometry on C1R-LLT1 transfectants, anti-human IgG secondary antibody. The procedure:
as §1

The target in test [5] is T4, LLT1-Fc fusion protein. Put plainly: SPR (Biacore T100, 25 °C); LLT1-Fc immobilised on CM5 chip (500 RU), antibody 3.125 to 100 nM in solution. The method, then:
Surface plasmon resonance measurements were performed on a Biacore T100 apparatus (Biacore) at 25° C. In all Biacore experiments, HBS buffer supplemented with 0.05% surfactant P20 served as running buffer and sensorgrams were analyzed with Biaevaluation software. Recombinant LLT1-Fc fusion protein (described by Aldemir et al in Journal of Immunology, 2005 vol. 176: 7791-7795) were immobilized covalently to carboxyl groups in the dextran layer on a Sensor Chip CM5 (Biacore). The sensor chip surface was activated with EDC/NHS(N-ethyl-N′-(3-dimethylaminopropyl) carbodiimidehydrochloride and N-hydroxysuccinimide, Biacore). Proteins diluted in coupling buffer (10 mM acetate, pH 4.5) were injected. Deactivation of the remaining activated groups was performed using 100 mM ethanolamine pH 8 (Biacore).
Anti-LLT12F1A5 was tested in a range of concentrations from 3.125 to 100 nM for binding to immobilized LLT1-Fc protein (500 RU).
A general note: In SPR one partner is held on a chip, and binding of the other changes the refractive index at the surface.

B1: anti-LLT14F (antibody, mouse IgG1, V domains shown)
VH: EVQLVESGGGLVQPGGSLKLSCAASGFTVSSYGMSWVRQIPDKRLELVATINSNGGRTFYPDSVKGRFTISRDNAQNTLYLQMSSLKSEDTAMYYCARDGGYWAHFDYWGQGTTLTVSS
VL: DVLMTQTPLSLPVSLGDQASISCRSSQSIVHSNGNTYLEWYLQKPGQSPKLLIYKVSNRFSGVPDRFSGSGSGTDFTLKISRVEAEDLGVYYCFQGSHVPWTFGGGTKLEIKR
notes: also called anti-LLT14F68; anti-LLT1-4F68
For B1, the binding result (in test [1]; in the test with CLEC2A-Fc protein) was “no binding” each time. The EC50 (read off the curve) (in general, the concentration giving half of the maximal effect) in test [2] was approximately 0.04 µg/mL. Moreover, in the test with LLT1-Fc fusion protein [3], the “IC50 (read off the curve)” value is approximately 6 µg/mL.

B2: anti-LLT14F-hIgG4 (antibody, V domains shown)
VH: B1 VH
VL: B1 VL
notes: Murine variable domains of anti-LLT14F on human kappa/IgG4 scaffold; also called chimeric mouse/human anti-LLT14F; ChimLLT14F; not shown: human IgG4 heavy chain constant region (CH) with hinge mutation S241P; human kappa light chain constant domain (CL)
Consider B2, for which the “EC50 (read off the curve)” value in test [4] was approximately 0.05 µg/mL.

B3: anti-LLT12F1A5 (antibody, mouse IgG1, V domains shown)
VH: EVQLQQSGAELVRSGASVKLSCTASGFNIKDYYMHWVKQRPEQGLEWIGWIDPENGDTEYAPKFQGKATVTADTSSNTVYLQLSSLTSEDTAVYYCNGEIITTTAWFTYWGQGTLVTVSA
VL: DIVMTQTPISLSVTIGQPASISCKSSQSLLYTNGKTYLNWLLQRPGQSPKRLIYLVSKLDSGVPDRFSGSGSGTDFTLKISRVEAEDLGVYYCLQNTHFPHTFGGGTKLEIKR
notes: also called anti-LLT2F1; anti-LLT2F1A5
Take B3: in the test with LLT1-Fc fusion protein [5], the Kd (as a rule, the constant that tells how readily two partners part at equilibrium) was 1.24 nM. Besides, the binding result (in test [1]; in the test with CLEC2A-Fc protein) was “no binding” each time.
